Assay results: US20220227830A1, “QD DOSING OF GIP RECEPTOR AGONIST PEPTIDE COMPOUNDS AND USES THEREOF” (Takeda Pharmaceutical Company Limited, priority 2020, published 2022)
Starred links: 1 amine or outer side, 2 acyl side, 3 side chain; linkers in the order of their positions; H or OH if unused. Non-standard residues stand in square brackets, D forms with d. Groups on a side chain read outwards from the residue. No end group written: not given here. *: point of attachment. G2E3 = linker of 2 Gly and 3 Glu (read GGEEE); C15 diacid = O=C(O)CCCCCCCCCCCCCC(=O)*; γGlu = O=C(O)[C@H](CCC(=O)[*:2])N[*:1]; NMeY = CN[C@@H](Cc1ccc(O)cc1)C(=O)O; AEEA = NCCOCCOCC(=O)O; Aib = CC(C)(N)C(=O)O

T1: full-length human GIPR with an N-terminal FLAG tag (human, UniProt P48546 22-466)
T1 sequence (looked up): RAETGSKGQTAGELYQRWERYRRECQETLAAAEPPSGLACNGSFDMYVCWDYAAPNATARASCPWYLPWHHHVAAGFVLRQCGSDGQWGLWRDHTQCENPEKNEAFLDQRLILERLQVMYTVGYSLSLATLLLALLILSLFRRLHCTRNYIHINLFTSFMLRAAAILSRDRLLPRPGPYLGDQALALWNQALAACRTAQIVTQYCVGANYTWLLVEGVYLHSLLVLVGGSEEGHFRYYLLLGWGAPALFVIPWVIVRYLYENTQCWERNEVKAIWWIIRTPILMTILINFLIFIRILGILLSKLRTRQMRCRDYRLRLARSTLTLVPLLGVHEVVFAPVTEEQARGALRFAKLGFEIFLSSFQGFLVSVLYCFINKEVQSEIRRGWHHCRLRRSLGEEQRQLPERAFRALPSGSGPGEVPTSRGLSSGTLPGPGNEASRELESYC


What was measured:
[1] = molecular target: full-length human GLP-1R with an N-terminal FLAG tag (human, UniProt P43220 24-463); experiment: cell-based or functional assay
[2] = molecular target: T1, full-length human GIPR with an …; experiment: cell-based or functional assay

Row | Binder | Human GLP1R cAMP HEK293T EC50 [1] [nM] | Human GIPR cAMP, HEK293T EC50 [2] [nM]
1 | [NMeY][Aib]EGTFISDYSIALDR[Aib]HQ[Aib]K([AEEA-AEEA-γGlu-C15 diacid])FVNWLLAQK-OH (N-terminus assumed; SMILES CC[C@H](C)[C@H](NC(=O)[C@H](CO)NC(=O)[C@H](Cc1ccc(O)cc1)NC(=O)[C@H](CC(=O)O)NC(=O)[C@H](CO)NC(=O)[C@@H](NC(=O)[C@H](Cc1ccccc1)NC(=O)[C@@H](NC(=O)CNC(=O)[C@H](CCC(=O)O)NC(=O)C(C)(C)NC(=O)[C@H](Cc1ccc(O)cc1)NC)[C@@H](C)O)[C@@H](C)CC)C(=O)N[C@@H](C)C(=O)N[C@@H](CC(C)C)C(=O)N[C@@H](CC(=O)O)C(=O)N[C@@H](CCCNC(=N)N)C(=O)NC(C)(C)C(=O)N[C@@H](Cc1c[nH]cn1)C(=O)N[C@@H](CCC(N)=O)C(=O)NC(C)(C)C(=O)N[C@@H](CCCCNC(=O)COCCOCCNC(=O)COCCOCCNC(=O)CC[C@H](NC(=O)CCCCCCCCCCCCCC(=O)O)C(=O)O)C(=O)N[C@@H](Cc1ccccc1)C(=O)N[C@H](C(=O)N[C@@H](CC(N)=O)C(=O)N[C@@H](Cc1c[nH]c2ccccc12)C(=O)N[C@@H](CC(C)C)C(=O)N[C@@H](CC(C)C)C(=O)N[C@@H](C)C(=O)N[C@@H](CCC(N)=O)C(=O)N[C@@H](CCCCN)C(=O)O)C(C)C) [Compound 12] | 363 | 0.0002
2 | [NMeY][Aib]EGTFISDYSI[Aib]LDRK([AEEA-AEEA-γGlu-γGlu-C15 diacid])AQ[Aib]NFVNWLLAQRGGGGS-NH2 [Compound 135] | 646 | 0.0005
3 | [NMeY][Aib]EGTFISDYSIALDRK([Gly-Gly-Gly-Gly-Gly-γGlu-C15 diacid])AQ[Aib]NFVNWLLAQSPSSGAPPPS-NH2 (N-terminus assumed; SMILES CC[C@H](C)[C@H](NC(=O)[C@H](CO)NC(=O)[C@H](Cc1ccc(O)cc1)NC(=O)[C@H](CC(=O)O)NC(=O)[C@H](CO)NC(=O)[C@@H](NC(=O)[C@H](Cc1ccccc1)NC(=O)[C@@H](NC(=O)CNC(=O)[C@H](CCC(=O)O)NC(=O)C(C)(C)NC(=O)[C@H](Cc1ccc(O)cc1)NC)[C@@H](C)O)[C@@H](C)CC)C(=O)N[C@@H](C)C(=O)N[C@@H](CC(C)C)C(=O)N[C@@H](CC(=O)O)C(=O)N[C@@H](CCCNC(=N)N)C(=O)N[C@@H](CCCCNC(=O)CNC(=O)CNC(=O)CNC(=O)CNC(=O)CNC(=O)CC[C@H](NC(=O)CCCCCCCCCCCCCC(=O)O)C(=O)O)C(=O)N[C@@H](C)C(=O)N[C@@H](CCC(N)=O)C(=O)NC(C)(C)C(=O)N[C@@H](CC(N)=O)C(=O)N[C@@H](Cc1ccccc1)C(=O)N[C@H](C(=O)N[C@@H](CC(N)=O)C(=O)N[C@@H](Cc1c[nH]c2ccccc12)C(=O)N[C@@H](CC(C)C)C(=O)N[C@@H](CC(C)C)C(=O)N[C@@H](C)C(=O)N[C@@H](CCC(N)=O)C(=O)N[C@@H](CO)C(=O)N1CCC[C@H]1C(=O)N[C@@H](CO)C(=O)N[C@@H](CO)C(=O)NCC(=O)N[C@@H](C)C(=O)N1CCC[C@H]1C(=O)N1CCC[C@H]1C(=O)N1CCC[C@H]1C(=O)N[C@@H](CO)C(N)=O)C(C)C) [Compound 131] | 75.9 | 0.0003
4 | [NMeY][Aib]EGTFISDYSIALDR[Aib]KQ[Aib]NFVNWLLAQSGGGGS-NH2 (not fully specified (residue 18)) [Compound 133] | 1000 | 0.0005
5 | [NMeY][Aib]EGTFISDYSIALDRK([Gly-Gly-Gly-Gly-Gly-γGlu-C15 diacid])AQ[Aib]DFVNWLLAQRPSSGAPPPS-NH2 [Compound 137] | 479 | 0.0002
6 | [NMeY][Aib]EGTFISDYSIALDR[Aib]AQ[Aib]KFVNWLLAQRPSSGAPPPS-NH2 (not fully specified (residue 21)) [Compound 130] | 91.2 | 0.0004
7 | [NMeY][Aib]EGTFISDYSIALDRK([G5-γGlu-C15DA])AQ[Aib]DFVNWLLAQSPSSGAPPPS-NH2 [Compound 132] | 21.9 | 0.0001
8 | Me-Y[Aib]EGTFISDYSI[Aib]LDR[Aib]AQ[Aib]NFVNWLLAQK([AEEA-AEEA-γGlu-γGlu-C15 diacid])GGGGS-NH2 [Compound 136] | 407 | 0.0009
9 | [NMeY][Aib]EGTFISDYSI[Aib]K([AEEA-AEEA-γGlu-C15 diacid])DR[Aib]AQ[Aib]DFVNWLLAQSPSSGAPPPS-NH2 (N-terminus assumed; SMILES CC[C@H](C)[C@H](NC(=O)[C@H](Cc1ccccc1)NC(=O)[C@@H](NC(=O)CNC(=O)[C@H](CCC(=O)O)NC(=O)C(C)(C)NC(=O)[C@H](Cc1ccc(O)cc1)NC)[C@@H](C)O)C(=O)N[C@@H](CO)C(=O)N[C@@H](CC(=O)O)C(=O)N[C@@H](Cc1ccc(O)cc1)C(=O)N[C@@H](CO)C(=O)N[C@H](C(=O)NC(C)(C)C(=O)N[C@@H](CCCCNC(=O)COCCOCCNC(=O)COCCOCCNC(=O)CC[C@H](NC(=O)CCCCCCCCCCCCCC(=O)O)C(=O)O)C(=O)N[C@@H](CC(=O)O)C(=O)N[C@@H](CCCNC(=N)N)C(=O)NC(C)(C)C(=O)N[C@@H](C)C(=O)N[C@@H](CCC(N)=O)C(=O)NC(C)(C)C(=O)N[C@@H](CC(=O)O)C(=O)N[C@@H](Cc1ccccc1)C(=O)N[C@H](C(=O)N[C@@H](CC(N)=O)C(=O)N[C@@H](Cc1c[nH]c2ccccc12)C(=O)N[C@@H](CC(C)C)C(=O)N[C@@H](CC(C)C)C(=O)N[C@@H](C)C(=O)N[C@@H](CCC(N)=O)C(=O)N[C@@H](CO)C(=O)N1CCC[C@H]1C(=O)N[C@@H](CO)C(=O)N[C@@H](CO)C(=O)NCC(=O)N[C@@H](C)C(=O)N1CCC[C@H]1C(=O)N1CCC[C@H]1C(=O)N1CCC[C@H]1C(=O)N[C@@H](CO)C(N)=O)C(C)C)[C@@H](C)CC) [Compound 129] | 1000 | 0.0005
10 | Me-Y[Aib]EGTFISDYSI[Aib]K([G2E3-C15 diacid])DR[Aib]AQ[Aib]NFVNWLLAQRPSSGAPPPS-NH2 [Compound 138] | 1000 | 0.0004
11 | Me-Y[Aib]EGTFISDYSI[Aib]K([AEEA-AEEA-γGlu-γGlu-C15 diacid])DR[Aib]AQ[Aib]NFVNWLLAQSPSSGAPPPS-NH2 [Compound 139] | 1000 | 0.0004
12 | [NMeY][Aib]EGTFISDYSI[Aib]KDR[Aib]AQ[Aib]NFVNWLLAQRGGGGS-NH2 (not fully specified (residue 14)) [Compound 134] | 1000 | 0.0004
